Values quoted from earlier work as cited in PMC12198371 (Nature Communications, 2025).

Biological target: α-chymotrypsin
Conditions: natural inhibitor, Fig. 9d

- Ki: 6 nM
B1: BBI G.m.: Bowman–Birk inhibitor (BBI) from soybean Glycine max (71 amino acids) (protein, UniProt P01055 40-110, looked up)
Bowman-Birk type proteinase …: DDESSKPCCDQCACTKSNPPQCRCSDMRLNSCHSACKSCICALSYPAQCFCVDITDFCYEPCKPSEDDKEN
